In patent US20090318338 one finds RSK2 ubiquitination data, which are given here for 1 substance.

The test system of this data set is RSK2.
RSK2, sequence (chain, as listed by the source): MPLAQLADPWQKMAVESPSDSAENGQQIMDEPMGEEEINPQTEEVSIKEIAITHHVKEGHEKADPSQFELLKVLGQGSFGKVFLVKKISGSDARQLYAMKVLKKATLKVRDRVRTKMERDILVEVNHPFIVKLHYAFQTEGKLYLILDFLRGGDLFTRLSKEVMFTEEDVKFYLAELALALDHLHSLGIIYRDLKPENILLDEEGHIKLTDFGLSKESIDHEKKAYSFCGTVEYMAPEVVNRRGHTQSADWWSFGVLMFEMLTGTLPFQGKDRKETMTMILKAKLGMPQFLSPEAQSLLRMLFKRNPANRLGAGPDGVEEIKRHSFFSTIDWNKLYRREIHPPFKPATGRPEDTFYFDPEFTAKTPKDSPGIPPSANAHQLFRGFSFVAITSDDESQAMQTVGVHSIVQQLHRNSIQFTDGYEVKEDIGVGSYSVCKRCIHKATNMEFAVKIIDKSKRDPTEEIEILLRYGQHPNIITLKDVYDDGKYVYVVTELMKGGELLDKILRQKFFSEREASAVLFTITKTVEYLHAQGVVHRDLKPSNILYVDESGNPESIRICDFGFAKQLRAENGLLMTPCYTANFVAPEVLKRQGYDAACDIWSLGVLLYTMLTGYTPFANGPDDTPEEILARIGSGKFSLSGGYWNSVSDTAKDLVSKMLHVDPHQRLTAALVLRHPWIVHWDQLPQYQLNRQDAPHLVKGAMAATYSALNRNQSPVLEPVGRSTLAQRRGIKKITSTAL

For WWP1, the RSK2 ubiquitination result is on record as “WWP1 can promote low levels of RSK2 ubiquitination”.
